Source: patent US20230331820A1 (GlaxoSmithKline, published 2023)

B1: mAb clone 2 (antibody, V domains shown)
VH: QVQLQQSGAELVRPGTSVKVSCKASGYAFTNYLIEWVKQRPGQGLEWIGVINPGSGGTNYNEKFKGKATLTADKSSSTAYMQLSSLTSDDSAVYFCARSRGYPYAMDYWGQGTSVTVSS
VL: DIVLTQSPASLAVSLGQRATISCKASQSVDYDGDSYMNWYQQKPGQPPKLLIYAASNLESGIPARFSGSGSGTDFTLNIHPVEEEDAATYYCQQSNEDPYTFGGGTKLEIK
B2: mAb clone 3, 21 (antibody, V domains shown)
VH: EVQLQQSGPELVKPGASVKISCKTSGYTFTEYTMHWVKQSHGKSLEWIGGINPNNGGTSYNQKFKGKATLTVDKSSSTAYMELRSLTSEDSAVYYCARSLVEGDFAYWGQGTLVTVSA
VL: DIVLTQSPASLAVSLGQRATISCRASQSVSTSSYSYMHWYQQKPGQPPKLLIKYASNLESGVPARFSGSGSGTDFTLNIHPVEEEDTATYYCQHSWEIPYTFGGGTKLEIK
B3: mAb clone 15 (antibody, V domains shown)
VH: QVQLKESGPGLVAPSQSLSITCTVSGFSLTSYGVSWVRQPPGKGLEWLGVIWGDGSTNYHSALISRLSISKDNSKSQVFLKLNSLQTDDTATYYCAKPDLYYDSPYAMDYWGQGTSVTVSS
VL: DIQMTQSPASLSASVGETVTITCRASGNIHNYLAWYQQKQGKSPQLLVYNAKTLADGVPSRFSGSGSGTQYSLKINSLQPEDFGSYYCQHFWSTPWTFGGGTKLEIK
B4: mAb clone 17 (antibody, V domains shown)
VH: QVQLKESGPGLVAPSQSLSITCTVSGFSLTSYGVHWVRQPPGKGLEWLGVIWAGGSSNYNSALMSRLSISKDNSKSQVFLKMNSLQTDDTAMYYCARDGYGYVYYAMDYWGQGTSVTVSS
VL: DIVMTQAAPSVPVTPGESVSISCRSSKSLLHSNGNTYLYWFLQRPGQSPQLLIYRMSNLASGVPDRFSGSGSGTAFTLRISRVEAEDVGVYYCMQHLEYPFTFGAGTKLELK
B5: mAb clone 20 (antibody, V domains shown)
VH: QVQLQQSGAELVRPGTSVKVSCKASGYAFTNYLIEWVKQRPGQGLEWIGVINPGSGGTNYNEKFKGKATLTADKSSSTAYMQLSSLTSDDSAVYFCARSHYGNYYAMDYWGQGTSVTVSS
VL: NIVLTQSPASLAVSLGQRATISCRASESVDSYGNSFMHWYQQKPGQPPKLLIYLASNLESGVPARFSGSGSRTDFTLTIDPVEADDAATYYCQQNNEDPWTFGGGTKLEIK
B6: mAb clone 9 (antibody, V domains shown)
VH: EVQLQQSGPELEKPGASVKISCKASGYSFTGYNMNWVKQSNGKSLEWIGNIDPYYGGTSYNQKFKGKATLTLDKSSSTAYMQLKSLTSEDSAVYYCARSRFITTVVATDYYAMDYWGQGTSVTVSS
VL: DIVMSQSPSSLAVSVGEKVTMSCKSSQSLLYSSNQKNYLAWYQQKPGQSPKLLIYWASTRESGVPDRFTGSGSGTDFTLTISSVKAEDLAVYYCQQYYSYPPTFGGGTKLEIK
B7: mAb clone 24 (antibody, V domains shown)
VH: EVQLQQSGPELVKPGASVKMSCKASGYTFTDYYMKWVKQSHGKSLEWIGDINPNNGDTFYNQKFKGKATLTVDKSSSTAYMQLNSLTSEDSAVYYCARRGFYYYGSRGGIMDYWGQGTSVTVSS
VL: NIMMTQSPSSLAVSAGEKVTMSCKSSQSVLYSSNQKNYLAWYQQKPGQSPKLLIYWASTRESGVPDRFTGSGSGTDFTLTISSVQAEDLAVYYCHQYLSSYTFGGGTKLEIK
B8: mAb clone 10 (antibody, V domains shown)
VH: EVKLVESGGGLVQPGGSLRLSCATSGFTFSDFYMEWVRQPPGKRLEWIAASRNKANDYTTEYSASVKGRFIVSRDTSQSILYLQMNALRAEDTAIYYCARENYGNPAMDYWGQGTSVTVSS
VL: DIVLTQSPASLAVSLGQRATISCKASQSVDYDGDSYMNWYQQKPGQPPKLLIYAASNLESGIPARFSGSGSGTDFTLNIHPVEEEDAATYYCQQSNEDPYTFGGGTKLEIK
B9: mAb clone 5 (antibody, V domains shown)
VH: EVKLVESGGGLVQPGGSLRLSCATSGFTFSDFYMEWVRQPPGKRLEWIAASRNKANDYTTEYSASVKGRFIVSRDTSQSILYLQMNALRAEDTAIYYCARDFLPYYGSPWFAYWGQGTLVTVSA
VL: DIVMTQSPATLSVTPGDRVSLSCRASQSISDYLHWYQQKSHESPRLLIKYASQSISGIPSRFSGSGSGSDFTLSINSVEPEDVGVYYCQNGHSFPYTFGGGTKLEIK
notes: also called mAb 5; GEGI/5IIa
B10: mAb clone 18 (antibody, V domains shown)
VH: QVQLQQSGAELVRPGTSVKMSCKAAGYTFTNYWIGWVKQRPGHGLEWIGDIYPGGGYTKYNEKFKGKATLTADTSSSTAYMQLSSLTSEDSAIYYCARDGYSPYWGQGTSLTVSS
VL: TIVMTQTPKFLLVSAGDRVTITCKASQSVSNAVAWYQQKPGQSPKLLIYSASNRYTGVPDRFTGSGYGTDFTFTISSVQAEDLAVYFCQQDYTSPFTFGSGTKLEIK
notes: also called mAb 18; mAb18

What follows are binders tested against gE WT: HSV2 gE wildtype ectodomain (HSV2, UniProt P89475 21-416) (assay: ELISA, supernatant).
B1: no binding.
B2: binds.
B3: no binding.
B4: no binding.
B5: no binding.
B6: no binding.
B7: no binding.
B8: no binding.

What follows are binders tested against T1, gI WT: HSV2 gI wildtype ectodomain (HSV2, UniProt P06764 21-256) (assay: ELISA, supernatant).
B2: no binding.
B3: no binding.
B4: no binding.
B5: no binding.
B6: no binding.
B7: no binding.
B8: no binding.
B9: no binding.

These binders were tested against gEgI mutant (338): HSV2 gEgI mutant heterodimer comprising gE and gI ectodomains with insertion of a (HSV2, UniProt P89475 21-416; P06764 21-256) (assay: ELISA, supernatant).
B1: binds.
B2: binds.
B3: binds.
B4: binds.
B5: binds.
B6: binds.
B7: binds.
B8: binds.

Target: T1, gI WT: HSV2 gI wildtype ectodomain
Test: ELISA, supernatant
Remark: another data set of the same source
B1: binds.
B10: no binding.

What follows are binders tested against T2, gEgI WT: HSV2 gEgI heterodimer comprising gE and gI wildtype ectodomains (HSV2, UniProt P89475 21-416; P06764 21-256) (assay: SPR binning; gEgI captured by mAb 5).
With B3 the RU was 13.5 RU.
B4 gave an RU of 0.5 RU.
Binder B5 has an RU of 25.3 RU.
With B6 the RU was 9.4 RU.
In the case of B7, the RU is reported as 34.4 RU.
In the case of B8, the RU is reported as 10.6 RU.

The binders below were run against T2, gEgI WT: HSV2 gEgI heterodimer … (assay: SPR binning; gEgI captured by mAb 9).
With B3 the RU was 12.7 RU.
B4 gave an RU of -0.5 RU.
In the case of B5, the RU is reported as 13 RU.
Binder B6 has an RU of -0.4 RU.
For B7, the RU was 17 RU.
B8 was tested, and the RU was 8.3 RU.

The binders below were run against T2, gEgI WT: HSV2 gEgI heterodimer … (assay: SPR binning; gEgI captured by mAb 10).
With B3 the RU was 13.4 RU.
For B4, the RU was 4.6 RU.
For B5, the RU was 32.8 RU.
B6 gave an RU of 11 RU.
B7 was tested, and the RU was 39.1 RU.
B8 showed an RU of 4 RU.

The binders below were run against T2, gEgI WT: HSV2 gEgI heterodimer … (assay: SPR binning; gEgI captured by mAb 15).
In the case of B3, the RU is reported as -4.9 RU.
B4 was tested, and the RU was -6.7 RU.
B5 showed an RU of 18.5 RU.
B6 was tested, and the RU was 5.5 RU.
In the case of B7, the RU is reported as 42.6 RU.
With B8 the RU was 3.3 RU.

What follows are binders tested against T2, gEgI WT: HSV2 gEgI heterodimer … (assay: SPR binning; gEgI captured by mAb 17).
Binder B3 has an RU of 3.4 RU.
B4 gave an RU of -8.7 RU.
Work on B5 yielded an RU of 24 RU.
B6 gave an RU of 7.8 RU.
B7 was tested, and the RU was 32.1 RU.
With B8 the RU was 8.2 RU.

The binders below were run against T2, gEgI WT: HSV2 gEgI heterodimer … (assay: SPR binning; gEgI captured by mAb 19).
Work on B3 yielded an RU of 7.6 RU.
Work on B4 yielded an RU of -6.3 RU.
In the case of B5, the RU is reported as 6.5 RU.
B6 was tested, and the RU was -5.1 RU.
Work on B7 yielded an RU of 13.3 RU.
For B8, the RU was 2.3 RU.

The binders below were run against T2, gEgI WT: HSV2 gEgI heterodimer … (assay: SPR binning; gEgI captured by mAb 20).
With B3 the RU was 13 RU.
In the case of B4, the RU is reported as 2.2 RU.
Binder B5 has an RU of 9.7 RU.
In the case of B6, the RU is reported as 4.8 RU.
Binder B7 has an RU of 17.7 RU.
B8 gave an RU of 10.8 RU.

What follows are binders tested against T2, gEgI WT: HSV2 gEgI heterodimer … (assay: SPR binning; gEgI captured by mAb 24).
With B3 the RU was 9.9 RU.
In the case of B4, the RU is reported as -2 RU.
Binder B5 has an RU of 7.3 RU.
Work on B6 yielded an RU of -0.1 RU.
Binder B7 has an RU of 6.4 RU.
Binder B8 has an RU of 8.2 RU.

The binders below were run against T2, gEgI WT: HSV2 gEgI heterodimer … (assay: SPR binning; gEgI captured by mAb 34).
B3 gave an RU of 5.9 RU.
For B4, the RU was -9.4 RU.
B5 showed an RU of 13.4 RU.
B6 gave an RU of 0.9 RU.
Work on B7 yielded an RU of 20.7 RU.
Work on B8 yielded an RU of 2 RU.

Each binder was assayed against T2, gEgI WT: HSV2 gEgI heterodimer … (assay: SPR binning; gEgI captured by mAb 39).
B3 gave an RU of 11.7 RU.
With B4 the RU was 0.5 RU.
B5 was tested, and the RU was 23.8 RU.
B6 gave an RU of 9 RU.
Work on B7 yielded an RU of 30.5 RU.
In the case of B8, the RU is reported as 10.3 RU.

The binders below were run against T2, gEgI WT: HSV2 gEgI heterodimer … (assay: SPR binning; gEgI captured by mAb 40).
For B3, the RU was 6.9 RU.
For B4, the RU was -2.4 RU.
Work on B5 yielded an RU of 21.3 RU.
B6 gave an RU of 6 RU.
Binder B7 has an RU of 28.3 RU.
For B8, the RU was 8.3 RU.

What follows are binders tested against T2, gEgI WT: HSV2 gEgI heterodimer … (assay: SPR binning; gEgI captured by mAb 42).
Binder B3 has an RU of 9.8 RU.
B4 showed an RU of -0.8 RU.
B5 was tested, and the RU was 24.5 RU.
Work on B6 yielded an RU of 7 RU.
B7 showed an RU of 30.7 RU.
With B8 the RU was 9.4 RU.

Each binder was assayed against T2, gEgI WT: HSV2 gEgI heterodimer … (assay: SPR binning; gEgI captured by mAb 45).
For B3, the RU was 8.7 RU.
With B4 the RU was -2.6 RU.
For B5, the RU was 16.4 RU.
B6 was tested, and the RU was 1.8 RU.
B7 gave an RU of 26.8 RU.
Work on B8 yielded an RU of -2 RU.

What follows are binders tested against T2, gEgI WT: HSV2 gEgI heterodimer … (assay: Biacore SPR, gEgI CHO BMP1181 at 10 µg/ml for 180 s over the mAb).
In the case of B1, the “RU Ag/250 RU mAbs” value is reported as -1.26 RU Ag/250 RU mAbs.
In the case of B2, the “RU Ag/250 RU mAbs” value is reported as 3.41 RU Ag/250 RU mAbs.
For B3, the “RU Ag/250 RU mAbs” value was 30.4 RU Ag/250 RU mAbs.

Each binder was assayed against T2, gEgI WT: HSV2 gEgI heterodimer … (assay: Biacore SPR, gEgI HEK BMP1063 at 10 µg/ml for 180 s over the mAb).
For B1, the “RU Ag/250 RU mAbs” value was 1.24 RU Ag/250 RU mAbs.
With B2 the “RU Ag/250 RU mAbs” value was 5.89 RU Ag/250 RU mAbs.
B3 was tested, and the “RU Ag/250 RU mAbs” value was 31.5 RU Ag/250 RU mAbs.
